Laboratory results published in the nanobody polyreactivity screen of Harvey et al. (2022).

Experiment: yeast display, Sf9 membrane polyspecificity reagent, FACS + sequencing; frameworks hold sequencing errors
How it was run: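 After 36–48 hours of galactose induction, yeast (Saccharomyces cerevisiae BJ5465) displaying a synthetic nanobody library were stained at 4 °C for 1 hour with 10% biotinylated, detergent-solubilized Sf9 membrane reagent. Streptavidin microbeads enriched the stained cells before FACS sorting into low and high (top ~1%) gates on anti-HA and streptavidin fluorescence. Each clone's polyreactivity label reflects its gate of origin.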

Sequence	polyreactivity (PSR sort gate)
QVQLVESGGGLVQAGGSLRLSCAASGSIFSSNAMGWYIQAPGKERELVAAITSGGSTTYADSVKGRFTISRDNAKNTVNLQMNSLKPEDTAVYYCAADPVYRYYHGWTYLDYDYWGQGTQVTVSS	low polyreactivity
QVQLVESGGGLVQAGGSLRLSCAASGYTFFFNVMGWYRQAPGKERELVAAISYSGGSTNYADSVKGRFTISRDNAKNTVYLQMNSLKPEDTAVYYCNARTVSRNGYQDDYWGQGTQVTVSS	low polyreactivity
QVQHVESGRGLVQAGGSLRLSCSASVRIFYNYAMGWYRQAPGKERELVAAISGSGGSTYYADSVKGRFTISRDNAKNSVYLQMNSQKPEDTAVYYCNKAVRRYPRFDYWGQGTQVTVSS	low polyreactivity
QVQLVESGGGLVQAGGSLRLSCAASGSIFSYYAMGWSRQAPGKERELVAAISWGDDSTYYADSVKGRFTISRDNAKNTVYLQMNSLKPEDTAVYYCAADRVGWYRTFDYWGQGTQVTVSS	low polyreactivity
QVQLVESGGGLVEAGGSLRLSCAASGSTFGYNAMGWYRQAPGKERELVAAISWSGGSTYYADSVKGRFTISRDNAKNTVYLQMNSLKPEDTAVYYCATPYVKWNDYWGQGTQVTVST	low polyreactivity
QVQLVESGGVLVQAGGSLRLSCAASGSTFYTYAMGWYRQAPGKERELVAAITRRGGRTYYADSVKGRFTISRDIAKNTVYLQMNSLKPEDTSVYYCAAYPWATCYGEWGQGTQVTVSS	high polyreactivity
QLQLVESGGGLVQAGGSLRLSCAASGSIFLIYDMGWYRQAPGKEMELVAAISNSVGSTYADSVKGRFTISRDNAKNTVYLQMNSLKPEDTAVYYCNADSGPIDGRGGYWGQGTQVTVSS	low polyreactivity
QVQLVESGGGLVQAGGSLRLSCAASGLTFGSKAMGWYRQAPGKERELLAAISWNGGSTSYADSVKGRFTISRDNAKHTVYLQMNSLKPEDTAVNYCAADYFDSSYQPTDSILYEYWGQGTQVTVSS	low polyreactivity
QVQLVESGGGLVQAGGSLRLSCDASGFTFARYNMGWYRQAPGKERELVAAISSRGSSTYYADSVKGRFTISRDNAKNTVYLQMNSLKAEDTAVYYCAAPPRYGYDYWGQGTQVTVSS	high polyreactivity
QVQLVESGGRLVQAGGSLRLSCAASGFIFVGNDMAWYRQAPGKVRELVAAISSGGTTNYADSVKGRFTNSRDNAKNTVYLQMNSLKPEDTAVYDCAADYDYRQGYDSVHLDYWGQGTQVTVSS	low polyreactivity
QVHLVESGGGLVQAGGTLRLSCYASGRTIDTNAMGWYRQPPGKEREMVATINCSGGRTHYADSVKGRFTISRDNAKNTVYLQMNSLKPEDTAVFYCAKASSRRYWTIRDCDYWGQGTQVTVSS	low polyreactivity
QVQLVESGGGLVQAGGSLRLSCAASGRNFYYYAMGWSRQAPGKERELVAAISWSGGSTRYADSVKGRFTISRDNPKNTVYLQMNSLKPEDTAVYYCAAEPDYWVGWIRYDYWGQGTQVTVSS	low polyreactivity
QVQLVESGGGLVQAGGSLRLSCAASGSTFYTNAMGWYRQAPGKEREMVASITGGGSTYYADSVKGRFTISRDNAKNTVYLQMNSLKPEDTAVYYCDADNVGGGWEFDSWGQGTQVTVSS	low polyreactivity
QVQLVESGGGLFQAGGSLRLSCAATGSTFSGYAMGWYRQATGKDRELVAAIASTGRTYYADSVKGRFTISRDNAKKTVYLQMNSLKPEDTAVYYCAAKRYTVYVHKYEYWGQGTKVTVSS	high polyreactivity
QVQLVESGGGLVQAGGSLRLSCAASGSIFKFYAMGWYRQAPGKERELVAAISQSGGRTYYADSVKGRFTISRDNAKNTVYLQMNSLKPEDTAVYYCAKSVFPVYGRPSNLWFNYWGQGTQVTVSS	high polyreactivity
QVQLVESGRGLVQAGGSLRLSCAASGIIFRLNAMGWYRQAPGKERELVAAILRRGGSTYYADSVKGRFTISRDNAKNTVYFQMNSLKPEDTAVDYCAKDPHGSDFGYWGQGTQVTVSS	low polyreactivity
QVQLVESGGGLVQAGGSLRLSCAASGRIIGKNAMGWYRQAPGKERELVAAIRYNGGRTYYADSVKGRFTISRDNAKNTVYLQMNSLKPEDTAVYYCATRTYRVDPEFGYWGQGTQVTVSS	high polyreactivity
QVQLVESGGGLVQAGGSLRLSCAASGSIIYYYAMGWYRQAPGKERELVASITRGGSTYYADSVKGRFTISRDNAKNTVYLQMNSLKPEDTAVYYCNADLGAYVPYDYWGQGTQVTVSS	high polyreactivity
QVQLVESGGVLVQAGGSLRLSCAASGFTFAYYAMGWYRQAPGKVRELVASITRSGGSTYYADSVKGRFTLSRDNAKNTVYLQMNSLKPEDTAVYYCAARYGLVRDVIPYDYWGQGTQVTVSS	high polyreactivity
QVQLVESGGGLDQAGGSLRLSCAASGSTFRYYAMGWYRQAPGKERELVAAINWSGGTTSYADSVKGRFTISRDNAKNTVYLQMNSLKPEDTAVYYCAVPYLYKYSRYDYWGQGTQVTVSS	high polyreactivity
QVQLVESGGGLDQAGGSLRLSCAASGITFVRYAMGWYRQAPGKERELVAAISWSGGSTYYADSVKGRFTISRDNEKNTVYLQMNSLKPEDTAVYYCAAQHDVRYDYWGQGTQVTVSS	low polyreactivity
QVQLVESGGGLVQAGGSLRLSCAASGSIFFDYAMGWDRQAPGKERQLVAAISWTGGSTYYADSVKGRFTISRDNAKNTVYLQMNSLKPEDTAVYYCNARYYSYSSPYDYWGQGTQVTVSS	high polyreactivity

Sequence	polyreactivity (PSR sort gate)
QVQLVESGGGLVQAGGSLRLSRAASGIMFGSYAMGWYRQAPGKERELVAAITSRGGSTYYADSVKGRFTISRDNAKNTVYLQMISLKPEDTAVYYCADVLYYWRVVYYVYADTGDYWGQCTQVTVSS	high polyreactivity
QVQLVESGGGLVQAGGSLRLSCAASGFTFERYTMGWYRPAPGKERELVATISRRSGRTSYADSVKGRFTISRDNAKNTVYLQMNSLKPEDTAVYYCAVDDAYPDRYDYWGQGTQVTVSS	high polyreactivity
QVQLVESGGGLVQAGGSLRLSCAASGSTFQPYAMGWYRQAAGNEREFVATISGSAGSTNYADSVKGRFTTSRDNAKSTVYLQMNSLKPEDTALYYCNALYRYLYRSGDYWGQGNQVTVSS	low polyreactivity
QVQLVETGGVLVQAGGSLRLSCAASGITFYRYAMGWYRQAPGKERELVATITSGVSTFYADSVKGRFTISRDNAKNTVYLQMKSLKQEDTAVYFCAAESVWNWYYTTAGMDYWGLGTQVTVSS	high polyreactivity
QVQLVESGGGLVQAGGSLRLICAASGSTFVLYAMGWYRQAPGKERELVAAITKRGGNTYYADSVKGRFTISRDNAKNTVYLQMNSLKPEDTAVYYCAADHVRSPFDSWGQGTQVTVSS	low polyreactivity
QVQLVESGGGLLQAGGSLRLSCAASGRTFYVYAMGWYRQAPGKEREFVAAIDWGGGTTYYADSVKGRFTISRDNAKNNVYLQMNCLKPEDTAVYYCNAAYTDRFYYWGQGTQVTVSS	high polyreactivity
QVQLVESGGGLVQAGGSLRLSCAASGFIFVPYAMGWYRQAPGKERELVATITWRGDSTYYADSVKGRFTISRDNAKNTVYLQMNSLKPEDTAVYYCAAVGPIRGYSSDEYWGQGTQVTVSS	low polyreactivity
QVQLVESGGGLVQAGGSLRLSCAASGSTFISYDMGWYRQAPGKERELVADITSVGGSTYYADSVKGRFTISRDNAKNTVYLQMNSLKPEDTAVYYCNAEAEWEEEGGSWGQGTQVTVSS	low polyreactivity
QVQLVESGGGLFQAGGSLRISCAASGRIFTKNTMGWYRQPPWKERELFAAIRSRAGSTYYADSVKGRFTISRDNAKNTVYLQMNSLKPEDTAFYYCAVPWFRSVDFDYWGQGTQVTVSS	low polyreactivity
QVQLVESGGGLVQAGGSLRLSCAASGRIFYKYTMGWYRQAPGKERELVAAITDSDDSTYYADSVKGRFTISRDNAKITVYLQMNSLKPEDTAVYYCAASGPVTESDMDYWGQGTQVTVSS	low polyreactivity
QVQLVESGGGLVQAGGSLRLSCAASGGIFYTNAMGWYRQAPGKERELVAAIRKNGDSTNYADSVKGRFTISRDNAKYTVYLHMNSLKPEDTAVYYCNDELWPWAYDYWGQGTQVTVSS	low polyreactivity
QVQLVESGGGLVQAGGSLRLSCAASGLIFTYYAMGWYRQAPGKERELVAGISSGTNTNYADSVKGRFTISRDNAKNTVYLQMISLKPEDTAVYYCAKTRGYQFVAYGYWGQGTQVTVSS	low polyreactivity
QDQHVESGGGLVQAGGSLRLICAASGINFDYYNMGWYRQAPGKERELVATISSGGTSTFYADSVKGRFTISRDNAKNTVYLQMNSLKPDDSAVYYCAKDRPGWVHRRPSGGFDYWGQGTQVTVSS	low polyreactivity
QVQLVESGGGLVQAGGSLRLSCAASGITFYTNAMGWYRQAPGKERELVAGISSSSGSTYYADSVKGRFTISRDNAKNTVYLQMNSLKPEDTAVYYCAADQDSTASDYKEYGYWGQGTQVTVSS	low polyreactivity
QVQLVESGGGLVQAGGSLRLSCAASGSTFVYNAMGWYRQAPGKERELVAAITVIGGRTYYADSVKGRFTISRDNAKNTVYLQMISLKPEDTAVYYCNADATESIGYYDEYEYWGQGTQVTVSS	low polyreactivity
QVQLVESGGGLVQAGGILRLSCAASGYIFGPNAMGCYRQAPGKERELVAGITWSTGNTYYAVSVKGRFTISRDNAKNTVYLHMNSLKPEDTAVYYCAADFYVAYEGVQPYWMDYWGQGTQVNVSS	low polyreactivity
QVQLVESGGGLVQAGGSLRLSCAASGRTFGFYAMGWYRQAPGKERELVAAITSSGGRTYYADSVKGRFTISRDNAKNTVYLQMNSLKPEDTAVYYCATSGRGKYIRYGYWGQGTQVTVSS	high polyreactivity
QVQLVESGGGLVQAGGSLRLSCAASGFIFNRYVMGWYRQAPGKERELVAVISRGGSTSYADSVKGRFTISRDNAKNTVYLQMNSLKPEDTAVYYCNAVHSRVYYSLGYGYWGLGTQVTVSS	high polyreactivity
QVQLVESGGGLVQAGGSLRLSCAASGFIFARNAMGWYRQAPGKERELVATITRSSGSTYYADSVKGRFTISRDNAKNTVYLQMNSLKPEDTAVYYCNARLYGTFWGQGTQVTVSS	high polyreactivity
QVQLVESGGGLVQAGGSLRLICASSGCTFGDYAMGWYRQEPGKERELVAAITIGGITTYADSVKGRFTISRDTAKYTVYLQRNSLKPEDTAVYYCAAAERGHWDDYWGQGTQVTVSS	low polyreactivity
QVQLVESGGGLVQAGGSLRLSCAASGRTFSVNAMGWYRQAPGKERELVAAITSGASTNYADSVKGRFTISRDNAKNTVYLQMNSLKPEDTAVYYCAADYLYHQTSRGKYYSWGQGTQVTVSS	low polyreactivity
